Source: PMC3476531, “Synergy of Peptide and Sugar in O-GlcNAcase Substrate Recognition” (Chemistry & Biology, 2012)
*: point of attachment. βGlcNAc = CC(=O)N[C@@H]1[C@@H](O)[C@H](O)[C@@H](CO)O[C@H]1*

Experiments:
[1] = target: T1, human O-GlcNAcase (hOGA), wild-type (human) (UniProt O60502)
T1 sequence: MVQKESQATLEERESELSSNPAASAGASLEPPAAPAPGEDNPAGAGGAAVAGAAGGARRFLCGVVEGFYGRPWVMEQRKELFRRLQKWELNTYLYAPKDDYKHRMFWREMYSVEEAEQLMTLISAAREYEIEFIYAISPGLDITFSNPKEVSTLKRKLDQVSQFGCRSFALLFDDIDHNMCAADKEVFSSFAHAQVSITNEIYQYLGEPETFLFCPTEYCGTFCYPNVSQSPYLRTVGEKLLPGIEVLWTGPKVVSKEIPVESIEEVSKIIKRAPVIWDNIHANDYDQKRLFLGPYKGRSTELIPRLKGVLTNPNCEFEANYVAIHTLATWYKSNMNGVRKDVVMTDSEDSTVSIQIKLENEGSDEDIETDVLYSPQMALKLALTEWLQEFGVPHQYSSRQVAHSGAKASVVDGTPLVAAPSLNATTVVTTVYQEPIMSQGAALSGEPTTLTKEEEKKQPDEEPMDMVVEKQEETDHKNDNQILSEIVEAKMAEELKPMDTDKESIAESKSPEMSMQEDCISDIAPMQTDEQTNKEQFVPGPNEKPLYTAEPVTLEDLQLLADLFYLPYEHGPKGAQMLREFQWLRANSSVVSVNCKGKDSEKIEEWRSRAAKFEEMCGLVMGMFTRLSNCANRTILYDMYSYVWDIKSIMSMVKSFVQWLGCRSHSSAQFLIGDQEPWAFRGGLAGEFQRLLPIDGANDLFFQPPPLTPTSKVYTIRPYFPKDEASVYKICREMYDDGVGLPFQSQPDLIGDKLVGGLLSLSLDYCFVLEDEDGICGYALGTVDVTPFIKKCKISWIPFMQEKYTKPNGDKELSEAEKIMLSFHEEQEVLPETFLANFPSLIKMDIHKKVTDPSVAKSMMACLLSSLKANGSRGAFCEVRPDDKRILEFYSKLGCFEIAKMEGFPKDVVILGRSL

[2] = target: T2, human O-GlcNAcase (hOGA) Y69K (human) (UniProt O60502)
T2 sequence: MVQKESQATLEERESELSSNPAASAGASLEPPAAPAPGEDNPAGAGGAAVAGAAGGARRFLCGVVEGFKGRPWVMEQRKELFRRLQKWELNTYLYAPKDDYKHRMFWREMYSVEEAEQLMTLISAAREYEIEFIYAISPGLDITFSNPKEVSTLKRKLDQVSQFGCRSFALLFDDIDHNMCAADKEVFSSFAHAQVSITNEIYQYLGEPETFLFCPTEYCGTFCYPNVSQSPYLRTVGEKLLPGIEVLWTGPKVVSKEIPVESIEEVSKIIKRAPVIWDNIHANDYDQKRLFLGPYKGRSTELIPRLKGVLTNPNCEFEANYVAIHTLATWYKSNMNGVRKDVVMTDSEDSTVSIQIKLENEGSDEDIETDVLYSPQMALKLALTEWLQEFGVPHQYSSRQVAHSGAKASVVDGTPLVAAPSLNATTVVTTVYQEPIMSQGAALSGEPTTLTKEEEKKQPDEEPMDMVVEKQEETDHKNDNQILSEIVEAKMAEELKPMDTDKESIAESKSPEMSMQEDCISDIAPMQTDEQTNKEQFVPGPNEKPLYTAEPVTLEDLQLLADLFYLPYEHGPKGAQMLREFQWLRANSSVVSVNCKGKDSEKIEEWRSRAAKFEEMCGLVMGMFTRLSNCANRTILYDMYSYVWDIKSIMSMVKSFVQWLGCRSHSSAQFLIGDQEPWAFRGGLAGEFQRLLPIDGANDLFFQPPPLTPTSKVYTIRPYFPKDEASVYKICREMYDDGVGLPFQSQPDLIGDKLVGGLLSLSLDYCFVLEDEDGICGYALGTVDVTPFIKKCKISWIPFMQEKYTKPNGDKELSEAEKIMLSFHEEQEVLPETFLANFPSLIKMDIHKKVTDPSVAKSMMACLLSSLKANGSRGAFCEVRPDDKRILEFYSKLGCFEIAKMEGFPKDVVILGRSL

[3] = target: T3, human O-GlcNAcase (hOGA) Y69F (human) (UniProt O60502)
T3 sequence: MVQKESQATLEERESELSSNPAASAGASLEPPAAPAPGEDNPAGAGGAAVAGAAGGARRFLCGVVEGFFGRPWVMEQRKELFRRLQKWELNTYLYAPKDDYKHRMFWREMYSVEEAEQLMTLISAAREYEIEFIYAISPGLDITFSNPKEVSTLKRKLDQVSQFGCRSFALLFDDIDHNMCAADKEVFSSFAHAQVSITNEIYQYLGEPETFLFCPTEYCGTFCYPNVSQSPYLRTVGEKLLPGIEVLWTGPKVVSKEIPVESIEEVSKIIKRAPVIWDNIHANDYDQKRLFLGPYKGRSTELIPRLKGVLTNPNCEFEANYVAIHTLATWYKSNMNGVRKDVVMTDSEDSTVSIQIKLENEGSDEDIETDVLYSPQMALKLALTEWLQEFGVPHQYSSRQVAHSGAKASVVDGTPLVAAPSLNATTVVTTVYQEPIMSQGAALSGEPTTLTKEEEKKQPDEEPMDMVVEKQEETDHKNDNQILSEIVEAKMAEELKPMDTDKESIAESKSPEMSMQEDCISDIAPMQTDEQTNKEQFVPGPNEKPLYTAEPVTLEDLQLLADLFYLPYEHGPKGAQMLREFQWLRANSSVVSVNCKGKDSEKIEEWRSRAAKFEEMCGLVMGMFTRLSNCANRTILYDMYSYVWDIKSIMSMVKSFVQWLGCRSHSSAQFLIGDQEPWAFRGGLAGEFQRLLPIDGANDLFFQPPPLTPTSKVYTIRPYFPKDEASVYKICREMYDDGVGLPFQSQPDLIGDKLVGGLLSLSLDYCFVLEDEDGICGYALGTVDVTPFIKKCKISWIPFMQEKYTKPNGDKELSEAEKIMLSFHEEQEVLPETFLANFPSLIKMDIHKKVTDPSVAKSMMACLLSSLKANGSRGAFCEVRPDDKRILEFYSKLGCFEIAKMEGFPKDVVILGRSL

B1: TAB1 peptide PVSVPYS(O-GlcNAc)SAQSTS (peptide)
peptide: Ac-PVSVPYS(βGlcNAc)SAQSTS-NH2
SMILES: CC(=O)N[C@H]1[C@H](OC[C@H](NC(=O)[C@H](Cc2ccc(O)cc2)NC(=O)[C@@H]2CCCN2C(=O)[C@@H](NC(=O)[C@H](CO)NC(=O)[C@@H](NC(=O)[C@@H]2CCCN2C(C)=O)C(C)C)C(C)C)C(=O)N[C@@H](CO)C(=O)N[C@@H](C)C(=O)N[C@@H](CCC(N)=O)C(=O)N[C@@H](CO)C(=O)N[C@H](C(=O)N[C@@H](CO)C(N)=O)[C@@H](C)O)O[C@H](CO)[C@@H](O)[C@@H]1O
KM of the glycopeptide substrate (substrate competition assay with 4MU-GlcNAc as reporter substrate) [1]: 940 µM
KM of the glycopeptide substrate (substrate competition assay with 4MU-GlcNAc as reporter substrate) [2]: > 4000 µM
KM of the glycopeptide substrate (substrate competition assay with 4MU-GlcNAc as reporter substrate) [3]: 1100 µM
